According to paper PMC7013354:

B1: recombinant sdAbE2-2 (VHH)
VHH: DVQLVESGGGLVQAGGSLRLSCTASGFTFDDYAMAWFRQPPGKEREGVSCISSSGGSTWYADSVKGRFTVSRDNAKNTLYLQMNSLKPEDTAMYYCAADWGRLCVVRGPRNEYKYSGQGTQVTVSS
B2: recombinant sdAbE2-1 (VHH)
VHH: QVQLLESGGGLVQPGGSLRLSCAASGYSFIDKTMAWVRQAPGKGLEWVSAIRMHNGSTYYADSVKGRFTISRDNSKNTLYLQMNSLRAEDTAVYYCARLSRRIQAKDKAKLKYWGQGTLVTVSS

Experiments:
[1] = target: truncated E2 protein of CSFV C-strain with glutathione S-transferase tag (grE2) (classical swine fever virus, C-strain); assay: SPR
[2] = target: truncated E2 protein of CSFV C-strain with glutathione S-transferase tag (grE2) (classical swine fever virus, C-strain); assay: ELISA

Row | Binder | Kd [1] [nM] | koff [1] [s⁻¹] | kon [1] [M⁻¹ s⁻¹] | OD450nm value [2]
1 | B1 | 13.5 | 0.00859 | 635000 | 0.743
2 | B2 | 334 | 0.00791 | 23700 | 0.765
